# Reference: the RNAGym collection of RNA variant scans (doi:10.1093/nar/gkz1192)
# B1: CPEB3 Ribozyme (parent)
# chain: UAACAGGGGGCCACAGCAGAAGCGUUCACGUCGCAGCCCCUGUCAGAUUCUGGUGAAUCUGCGAAUUCUGCUGUAUAUCUC
# Variants of: B1
# Assay: self-cleavage, relative activity (ratio to wild type); higher = more cleavage; in vitro, sequencing
# In short: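 After error-prone PCR and barcoding, CPEB3 ribozyme mutant libraries were transcribed with T7 RNA polymerase at 37°C for 5 hours, then given 15 min with DNase I before an EDTA stop, and they cleaved during both steps. Reverse transcription with template switching preceded Illumina sequencing. Relative activity divides a variant's cleaved/total read fraction by the unmutated ribozyme's. At least 5 reads were required per variant, and three batches were averaged.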
row,Variant,self-cleavage
1,UAACAGGGGGCCACAGCAGAAGCGAUCACGUCGCAGCCCCUGUCAGAUUCUGGUGAAUCUGCGAAUUCUGCUGUAUAUCCC,0.33
2,UAACAGGGGGCCACAGCAGAAGCGCUCACGUCGCAGCCACUGUCAGAUUCUGGUGAAUCUGCGAAUUCUGCUGUAUAUCUC,0.23
3,UAACAGGGGGCCACAGCAGAAGCGCUCACGUCGCAGCCUCUGUCAGAUUCUGGUGAAUCUGCGAAUUCUGCUGUAUAUCUC,0.2
4,UAACAGGGGGCCACAGCAGAAGCGCUCACGUCGCAGCCGCUGUCAGAUUCUGGUGAAUCUGCGAAUUCUGCUGUAUAUCUC,0.15
5,UAACAGGGGGCCACAGCAGAAGCGCUCACGUCGCAGCCCCUGUCAGAUUGUGGUGAAUCUGCGAAUUCUGCUGUAUAUCUC,0.37
6,UAACAGGGGGCCACAGCAGAAGCGCUCACGUCGCAGCCCCUGUCAGAUUAUGGUGAAUCUGCGAAUUCUGCUGUAUAUCUC,0.09
7,UAACAGGGGGCCACAGCAGAAGCGCUCACGUCGCAGCCCCUGUCAGAUUUUGGUGAAUCUGCGAAUUCUGCUGUAUAUCUC,0.27
8,UAACAGGGGGCCACAGCAGAAGCGCUCACGUCGCAGCCCCUGUCAGUUUCUGGUGAAUCUGCGAAUUCUGCUGUAUAUCUC,0.23
9,UAACAGGGGGCCACAGCAGAAGCGCUCACGUCGCAGCCCCUGUCAGGUUCUGGUGAAUCUGCGAAUUCUGCUGUAUAUCUC,0.27
10,UAACAGGGGGCCACAGCAGAAGCGCUCACGUCGCAGCCCCUGUCCGAUUCUGGUGAAUCUGCGAAUUCUGCUGUAUAUCUC,0.18
11,UAACAGGGGGCCACAGCAGAAGCGCUCACGUCGCAGCCCCUGUCUGAUUCUGGUGAAUCUGCGAAUUCUGCUGUAUAUCUC,0.28
12,UAACAGGGGGCCACAGCAGAAGCGCUCACGUCGCAGCCCCUGUCGGAUUCUGGUGAAUCUGCGAAUUCUGCUGUAUAUCUC,0.26
13,UAACAGGGGGCCACAGCAGAAGCGCUCACGUCGCAGCCCCUGUCAGAUUCUGGUGAAUCUGCGUAUUCUGCUGUAUAUCUC,0.26
14,UAACAGGGGGCCACAGCAGAAGCGCUCACGUCGCAGCCCCUGUCAGAUUCUGGUGAAUCUGCGCAUUCUGCUGUAUAUCUC,0.45
15,UAACAGGGGGCCACAGCAGAAGCGCUCACGUCGCAGCCCCUGUCAGAUUCUGGUGAAUCUGCGGAUUCUGCUGUAUAUCUC,0.3
16,UAACAGGGGGCCACAGCAGAAGCGCUCACGUCGCAGCCCCUGUCAGAUUCUGGUGAAUCUGCGAAUUCUGCUGUUUAUCUC,0.34
17,UAACAGGGGGCCACAGCAGAAGCGCUCACGUCGCAGCCCCUGUCAGAUUCUGGUGAAUCUGCGAAUUCUGCUGUGUAUCUC,0.23

row,Variant,self-cleavage
1,UAACAGGGGGCCACAGCAGAAGCGCUCACGUCGCAGCCCCUGUCAGAUUCUGGUGAAUCUGCGAAUUCUGCUGUCUAUCUC,0.35
2,UAACAGGGGGCCACAGCAGAAGCGCUCACGUCGCAGCCCCUGUCAGAUUCUGGUGAAUCUGCGACUUCUGCUGUAUAUCUC,0.45
3,UAACAGGGGGCCACAGCAGAAGCGCUCACGUCGCAGCCCCUGUCAGAUUCUGGUGAAUCUGCGAUUUCUGCUGUAUAUCUC,0.28
4,UAACAGGGGGCCACAGCAGAAGCGCUCACGUCGCAGCCCCUGUCAGAUUCUGGUGAAUCUGCGAGUUCUGCUGUAUAUCUC,0.3
5,UAACAGGGGGCCACAGCAGAAGCGCUCUCGUCGCAGCCCCUGUCAGAUUCUGGUGAAUCUGCGAAUUCUGCUGUAUAUCUC,0.25
6,UAACAGGGGGCCACAGCAGAAGCGCUCGCGUCGCAGCCCCUGUCAGAUUCUGGUGAAUCUGCGAAUUCUGCUGUAUAUCUC,0.28
7,UAACAGGGGGCCACAGCAGAAGCGCUCCCGUCGCAGCCCCUGUCAGAUUCUGGUGAAUCUGCGAAUUCUGCUGUAUAUCUC,0.15
8,UAACAGGGGGCCACAGCAGAAGCGCUCACGUCGCAGCCCCUGUCAGAUUCUGGUGUAUCUGCGAAUUCUGCUGUAUAUCUC,0.24
9,UAACAGGGGGCCACAGCAGAAGCGCUCACGUCGCAGCCCCUGUCAGAUUCUGGUGCAUCUGCGAAUUCUGCUGUAUAUCUC,0.25
10,UAACAGGGGGCCACAGCAGAAGCGCUCACGUCGCAGCCCCUGUCAGAUUCUGGUGGAUCUGCGAAUUCUGCUGUAUAUCUC,0.25
11,UAACAGGGGGCCACAGCAGAAGCGCUCACGUCGCUGCCCCUGUCAGAUUCUGGUGAAUCUGCGAAUUCUGCUGUAUAUCUC,0.24
12,UAACAGGGGGCCACAGCAGAAGCGCUCACGUCGCGGCCCCUGUCAGAUUCUGGUGAAUCUGCGAAUUCUGCUGUAUAUCUC,0.31
13,UAACAGGGGGCCACAGCAGAAGCGCUCACGUCGCAGCCCCUGUCAGAUUCUGGUGAAUCUGCGAAUUCUGCUGUAUCUCUC,0.3
14,UAACAGGGGGCCACAGCAGAAGCGCUCACGUCGCAGCCCCUGUCAGAUUCUGGUGAAUCUGCGAAUUCUGCUGUAUGUCUC,0.27
15,UAACAGGGGGCCACAGCAGAAGCGCUCACGUCGCAGCCCCUGUCAGAUUCUGGUGAAUCUGCGAAUUCUGCUGUAUUUCUC,0.26
16,UAACAGGGGGCCACAGCAGAAGCGCUCACGUUGCAGCCCCUGUCAGAUUCUGGUGAAUCUGCGAAUUCUGCUGUAUAUCUC,0.14
17,UAACAGGGGGCCACAGCAGAAGCGCUCACGUAGCAGCCCCUGUCAGAUUCUGGUGAAUCUGCGAAUUCUGCUGUAUAUCUC,0.22
